Sequences and labels used below:
B1: CPEB3 Ribozyme (parent)
chain: UAACAGGGGGCCACAGCAGAAGCGUUCACGUCGCAGCCCCUGUCAGAUUCUGGUGAAUCUGCGAAUUCUGCUGUAUAUCUC

The variants in this data set derive from B1. Briefly: self-cleavage, relative activity (ratio to wild type); higher = more cleavage; in vitro, sequencing. Summed up: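 CPEB3 self-cleaving ribozyme mutant libraries were made by rounds of error-prone PCR, barcoded, and transcribed in vitro with T7 RNA polymerase for 5 hours at 37°C. Cleavage occurred during transcription and a 15 min DNase I step before EDTA stop. RNAs were reverse transcribed with template switching and Illumina-sequenced, with DNA sequencing mapping barcodes to variants. Relative activity is the variant's cleaved/total read fraction divided by wild type's (minimum 5 reads), averaged across three batches.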
On to UAACAGGGGGCCACAGCAGAAGCGUUCACGUCGCAUCCCCUAUCAGAUUCUGGUGAAUCUGCGAAUUCUGCUGUAUAUCUC, for which the self-cleavage was found to be 0.21.
With UAACAGGGGGCCACAGCAGAAGCGUUCACGUCGCACCCCCUGUCAGAUUCUGGUGAAUCUGCGAACUCUGCUGUAUAUCUC the figure was 0.23.
With UAACAGGGGGCCACAGCAGAAGCGUUCACGUCGCACCCCCUGUCAGAUUCUGGUGGAUCUGCGAAUUCUGCUGUAUAUCUC, the self-cleavage was determined as 0.21.
The figure for UAACAGGGGGCCACAGCAGAAGCGUUCACGUCGCACCCCCUGUCAGAUUCUGGUGUAUCUGCGAAUUCUGCUGUAUAUCUC is 0.13.
The figure for UAACAGGGGGCCACAGCAGAAGCGUUCACGUCGCAUCCCCUGUCAGAUUCUGGUGAAUCUGCGAAUACUGCUGUAUAUCUC is 0.64.
With UAACAGGGGGCCACAGCAGAAGCGUUCACGUCGCAACCCCUGUCAGAUUCUGGUGAAUCUGCGAAUUCUGCUGUAUAUCCC, the self-cleavage is 0.34.
Regarding UAACAGGGGGCCACAGCAGAAGCGUUCACGUCGCAUCCCCUGUCAGAUUCUGGUGAAUCUGCGAAUUCUGCUGUAUAACUC, the self-cleavage worked out at 0.43.
The figure for UAACAGGGGGCCACAGCAGAAGCGUUCACGUCGCAUCCCCUGUCAGAUUCUGGUGAAUCUGCGAAUUCUGCUGUGUAUCUC is 0.11; for UAACAGGGGGCCACAGCAGAAGCGUUCACGUCGCAUCCCCAGUCAGAUUCUGGUGAAUCUGCGAAUUCUGCUGUAUAUCUC it is 0.29.
The figure for UAACAGGGGGCCACAGCAGAAGCGUUCACGUCGCAUCCCCCGUCAGAUUCUGGUGAAUCUGCGAAUUCUGCUGUAUAUCUC is 0.3.
The figure for UAACAGGGGGCCACAGCAGAAGCGUUCACGUCGCACCCCCUGUCAGAUUCUGGUGAAUCUGCGAGUUCUGCUGUAUAUCUC is 0.13; for UAACAGGGGGCCACAGCAGAAGCGUUCACGUCGCAUCCCCUGUCAGACUCUGGUGAAUCUGCGAAUUCUGCUGUAUAUCUC it is 0.17.
Take UAACAGGGGGCCACAGCAGAAGCGUUCACGUCGCACCCCCUGUCUGAUUCUGGUGAAUCUGCGAAUUCUGCUGUAUAUCUC: the self-cleavage worked out at 0.14.
The figure for UAACAGGGGGCCACAGCAGAAGCGUUCACGUCGCACCCCCUGUCGGAUUCUGGUGAAUCUGCGAAUUCUGCUGUAUAUCUC is 0.17.
For UAACAGGGGGCCACAGCAGAAGCGUUCACGUCGCACCCCCUGUCAGGUUCUGGUGAAUCUGCGAAUUCUGCUGUAUAUCUC, the self-cleavage is 0.15.
For the variant UAACAGGGGGCCACAGCAGAAGCGUUCACGUCGCACCCCCUGUCAGCUUCUGGUGAAUCUGCGAAUUCUGCUGUAUAUCUC, the self-cleavage amounted to 0.13.
Consider UAACAGGGGGCCACAGCAGAAGCGUUCACGUCGCACCCCCUGUCAGAUUCCGGUGAAUCUGCGAAUUCUGCUGUAUAUCUC, for which the self-cleavage turned out to be 0.39.
With UAACAGGGGGCCACAGCAGAAGCGUUCACGUCGCACCCCCUGUCAGAUUCAGGUGAAUCUGCGAAUUCUGCUGUAUAUCUC the figure was 0.16.
Consider UAACAGGGGGCCACAGCAGAAGCGUUCACGUCGCACCCCCUGUCAGAUUCUGGUGAAUCUGUGAAUUCUGCUGUAUAUCUC, for which the self-cleavage was found to be 0.15.
The figure for UAACAGGGGGCCACAGCAGAAGCGUUCACGUCGCAUCCCCUGUCAGAUUCUGGUGAAUCUGCGAAUUCUGCUGUACAUCUC is 0.2; for UAACAGGGGGCCACAGCAGAAGCGUUCACGUCGCAUCCCCUGUCAGAUUCUGGUGAAUCUGCGAAUUCUGCUGUAAAUCUC it is 0.2.
With UAACAGGGGGCCACAGCAGAAGCGUUCACGUCGCACCCCCUGUCAGAUACUGGUGAAUCUGCGAAUUCUGCUGUAUAUCUC the figure was 0.17; with UAACAGGGGGCCACAGCAGAAGCGUUCACGUCGCAUCCCCUGUCAGAUUCUGGUGAACCUGCGAAUUCUGCUGUAUAUCUC, 0.53.
With UAACAGGGGGCCACAGCAGAAGCGUUCACGUCGCAUCCCCUGUCAGAUUCGGGUGAAUCUGCGAAUUCUGCUGUAUAUCUC the figure was 0.15; with UAACAGGGGGCCACAGCAGAAGCGUUCACGUCGCAUCCCCUGUCAGAUUCUGGUGAGUCUGCGAAUUCUGCUGUAUAUCUC, 0.48; with UAACAGGGGGCCACAGCAGAAGCGUUCACGUCGCAUCCCCUGUCAGAUUCUGGUGAAUCCGCGAAUUCUGCUGUAUAUCUC, 0.11.
For the variant UAACAGGGGGCCACAGCAGAAGCGUUCACGUCGCAUCCCCUGUCAGAUUCUGGUGAAUCUGCUAAUUCUGCUGUAUAUCUC, the self-cleavage was determined as 0.12.
UAACAGGGGGCCACAGCAGAAGCGUUCACGUCGCAUCCCCUGUCAGAUUCUGGUGAAUCUGCAAAUUCUGCUGUAUAUCUC: the self-cleavage amounted to 0.12.
Take UAACAGGGGGCCACAGCAGAAGCGUUCACGUCGCACCCCCUGUCAGAUUCUGGUGAAUCUGCGAAUCCUGCUGUAUAUCUC: the self-cleavage is 0.18.
Turning to UAACAGGGGGCCACAGCAGAAGCGUUCACGUCGCACCCCCUGCCAGAUUCUGGUGAAUCUGCGAAUUCUGCUGUAUAUCUC, the self-cleavage was found to be 0.28.
With UAACAGGGGGCCACAGCAGAAGCGUUCACGUCGCAUCCCCUGUCAGAUUCUGGUGAAUCUGCGAAUUCUGCUGUAUGUCUC the figure was 0.12; with UAACAGGGGGCCACAGCAGAAGCGUUCACGUCGCAUCCCCUGUCAGAUUCUGGUGAAUCUGCGAAUUCUGCUGUAUUUCUC, 0.19; with UAACAGGGGGCCACAGCAGAAGCGUUCACGUCGCACCUCCUGUCAGAUUCUGGUGAAUCUGCGAAUUCUGCUGUAUAUCUC, 0.27.
As for UAACAGGGGGCCACAGCAGAAGCGUUCACGUCGCACCACCUGUCAGAUUCUGGUGAAUCUGCGAAUUCUGCUGUAUAUCUC, the self-cleavage was determined as 0.16.
With UAACAGGGGGCCACAGCAGAAGCGUUCACGUCGCACCCCCUGUCAGAUUCUGGUGAAUCUGCGAAUUCUGCGGUAUAUCUC the figure was 0.19; with UAACAGGGGGCCACAGCAGAAGCGUUCACGUCGCAUCCCCUGUCAGAUUCUGGUGAAUCUUCGAAUUCUGCUGUAUAUCUC, 0.13; with UAACAGGGGGCCACAGCAGAAGCGUUCACGUCGCACCCCCUGUCAGAUUCUGGUGAAUCUGCGAAUUCUGCUGUAUGUCUC, 0.29.
Take UAACAGGGGGCCACAGCAGAAGCGUUCACGUCGCACCCCCUGUCAGACUCUGGUGAAUCUGCGAAUUCUGCUGUAUAUCUC: the self-cleavage came out at 0.4.
With UAACAGGGGGCCACAGCAGAAGCGUUCACGUCGCACCCCCUGUCAGAUUCUGGUGAAUCUGCGGAUUCUGCUGUAUAUCUC the figure was 0.16; with UAACAGGGGGCCACAGCAGAAGCGUUCACGUCGCAUCCCCUGUCAGAUUCUGGUGAAUCUGCGAAUUCUGCUAUAUAUCUC, 0.37; with UAACAGGGGGCCACAGCAGAAGCGUUCACGUCGCACCCCCUGUCAGAUUCUGGUGAACCUGCGAAUUCUGCUGUAUAUCUC, 0.14.
The figure for UAACAGGGGGCCACAGCAGAAGCGUUCACGUCGCACCCCCUGUCAGAUUCUGGUAAAUCUGCGAAUUCUGCUGUAUAUCUC is 0.12; for UAACAGGGGGCCACAGCAGAAGCGUUCACGUCGCACCCCCUGUCAGAUUCUGGUGAAUCUUCGAAUUCUGCUGUAUAUCUC it is 0.12; for UAACAGGGGGCCACAGCAGAAGCGUUCACGUCGCACCCCCUGUCAGAUUCUGGUGAAUCUCCGAAUUCUGCUGUAUAUCUC it is 0.14.
The figure for UAACAGGGGGCCACAGCAGAAGCGUUCACGUCGCACCCCCUGUCAGAUUCUGGUGAAUCUGCGAAUUCUGCUGUAUAUCAC is 0.12; for UAACAGGGGGCCACAGCAGAAGCGUUCACGUCGCACCCCCUGUCAGAUUCUGGUGAAUCUGCGAAUUCUGCUGUAUAUCCC it is 0.13.
Regarding UAACAGGGGGCCACAGCAGAAGCGUUCACGUCGCACCCCCUGUCAGAUUCUGGUGAAUCUGCGAAUUCCGCUGUAUAUCUC, the self-cleavage is 0.11.
For UAACAGGGGGCCACAGCAGAAGCGUUCACGUCGCAUCCCCUGUCUGAUUCUGGUGAAUCUGCGAAUUCUGCUGUAUAUCUC, the self-cleavage is 0.19.
With UAACAGGGGGCCACAGCAGAAGCGUUCACGUCGCAUCCCCUGUCGGAUUCUGGUGAAUCUGCGAAUUCUGCUGUAUAUCUC the figure was 0.22; with UAACAGGGGGCCACAGCAGAAGCGUUCACGUCGCACCCCCUGUCAGAUUCUGGUGAAUCUGCGAAUUCUGCUGUAUACCUC, 0.14.
With UAACAGGGGGCCACAGCAGAAGCGUUCACGUCGCAUCCCCUGUCAGAUUCUGGUGAAUCUGCGAAUUCUGCUGCAUAUCUC the figure was 0.31.
With UAACAGGGGGCCACAGCAGAAGCGUUCACGUCGCACCCCCUGUCAGAUUCUGGUGAUUCUGCGAAUUCUGCUGUAUAUCUC the figure was 0.13.
On to UAACAGGGGGCCACAGCAGAAGCGUUCACGUCGCAUUCCCUGUCAGAUUCUGGUGAAUCUGCGAAUUCUGCUGUAUAUCUC, for which the self-cleavage was determined as 0.1.
With UAACAGGGGGCCACAGCAGAAGCGUUCACGUCGCAUCCCCUGUCAGAUUCUGGUGAAUCUGCGAAUUCUGCCGUAUAUCUC the figure was 0.13.
For UAACAGGGGGCCACAGCAGAAGCGUUCACGUCGCACCCCCUGUCAGAUUCUGGUGAAUCCGCGAAUUCUGCUGUAUAUCUC, the self-cleavage was 0.13.
The figure for UAACAGGGGGCCACAGCAGAAGCGUUCACGUCGCACCCCCUGUCAGAUUCUGGUGAAUCAGCGAAUUCUGCUGUAUAUCUC is 0.08; for UAACAGGGGGCCACAGCAGAAGCGUUCACGUCGCAUCCCCUGUCAGGUUCUGGUGAAUCUGCGAAUUCUGCUGUAUAUCUC it is 0.11.
The figure for UAACAGGGGGCCACAGCAGAAGCGUUCACGUCGCAUCCCCUGUCAGUUUCUGGUGAAUCUGCGAAUUCUGCUGUAUAUCUC is 0.08; for UAACAGGGGGCCACAGCAGAAGCGUUCACGUCGCAUCCCCUGUCAGAUUCUGGUGAAUCUGCGAUUUCUGCUGUAUAUCUC it is 0.06; for UAACAGGGGGCCACAGCAGAAGCGUUCACGUCGCAUCCCCUGUCAGAUUCUGGUGAAUCUGCGAGUUCUGCUGUAUAUCUC it is 0.39.
With UAACAGGGGGCCACAGCAGAAGCGUUCACGUCGCAUCCCCUGUCAGAUUCUGGUGAAUCUGCGAAUUCAGCUGUAUAUCUC the figure was 0.2.
For the variant UAACAGGGGGCCACAGCAGAAGCGUUCACGUCGCAUCCCCUGUCAGAUUCUGGUGAAUCUGCGAAUUCCGCUGUAUAUCUC, the self-cleavage worked out at 0.15.
The figure for UAACAGGGGGCCACAGCAGAAGCGUUCACGUCGCAUCCCCUGUCAGAUUCUGGCGAAUCUGCGAAUUCUGCUGUAUAUCUC is 0.26.
With UAACAGGGGGCCACAGCAGAAGCGUUCACGUCGCAUCCCCUGUCAGAUUCUGGUGAAUCUGCGAAUUCUGUUGUAUAUCUC, the self-cleavage is 0.1.
As for UAACAGGGGGCCACAGCAGAAGCGUUCACGUCGCAUCCCCUGUCAGAUUCUGGUGAAUCUGCGAAUUCUGCUGUAUAUCUC, the self-cleavage was 0.24.
The figure for UAACAGGGGGCCACAGCAGAAGCGUUCACGUCGCACCCCCUGUCAGAUUCUGGUGAAUCUGCGAAUUCUGCUGUAUAUCUC is 0.31; for UAACAGGGGGCCACAGCAGAAGCGUUCACGUCGCACCCCCUGUCAGAUUCUGGUGAAUCUGCGAAUUCUGCUGCAUAUCUC it is 0.2; for UAACAGGGGGCCACAGCAGAAGCGUUCACGUCGCAUCCCCUGUCAGAUUCUGGUGAAUUUGCGAAUUCUGCUGUAUAUCUC it is 0.16.

For the origin of these results see the RNAGym collection of RNA variant scans (doi:10.1093/nar/gkz1192).
